This is an account of results in PMC4805503 (Traffic (Copenhagen, Denmark), 2016).

One experiment has as its target tepsin (Homo sapiens) (UniProt Q96N21). The following applies: cited from earlier work.
The target of experiment [1] is T1, AP4 β4 C-terminal appendage domain (residues 612–739), wild type (UniProt Q9Y6B7 612-739).
T1 sequence (looked up): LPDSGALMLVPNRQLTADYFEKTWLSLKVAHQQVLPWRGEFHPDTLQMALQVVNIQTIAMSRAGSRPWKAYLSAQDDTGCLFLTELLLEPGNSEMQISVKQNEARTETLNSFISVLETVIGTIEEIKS
As to the kind of experiment: pull-down.

For experiment [2], the target named is T1, AP4 β4 C-terminal appendage domain …. As to the kind of experiment: ITC. On the technique in general: In ITC the heat of successive injections is recorded.

On to “AP4 ε appendage domain (from UniProt Q9UPM8)”, for which, in the experiment with tepsin (Homo sapiens), the Kd – broadly, the constant that tells how readily two partners part at equilibrium – was 3 µM.

B1: GST-tepsin (residues 450–525) (domain or fragment, UniProt Q96N21 450-525, looked up)
chain: PGGTDSPKRGPSSCAWSRDSLFAGMELVACPRLVGAGAAAGESCPDAPRAPQTSSQRTAAKEPPGSEPSAFAFLNA
On to B1, for which the binding result in experiment [1] is on record as “binds”.

B2: tepsin C-terminal fragment (residues 450–500), GST removed (domain or fragment, UniProt Q96N21 450-500, looked up)
chain: PGGTDSPKRGPSSCAWSRDSLFAGMELVACPRLVGAGAAAGESCPDAPRAP
Turning to B2, in experiment [2], the Kd came to 2.9 µM and the stoichiometry N – broadly, a count of units in the complex or per binding partner – amounted to 1.

B3: tepsin fragment (residues 450–500) G473I/M474Q, GST removed (domain or fragment, UniProt Q96N21 450-500, looked up)
chain: PGGTDSPKRGPSSCAWSRDSLFAIQELVACPRLVGAGAAAGESCPDAPRAP
On to B3, for which the dissociation constant (Kd) in experiment [2] was > 300 µM.

B4: tepsin fragment (residues 450–500) L470S/F471S, GST removed (domain or fragment, UniProt Q96N21 450-500, looked up)
chain: PGGTDSPKRGPSSCAWSRDSSSAGMELVACPRLVGAGAAAGESCPDAPRAP
For B4, the Kd in experiment [2] is > 300 µM.

B5: tepsin fragment (residues 450–500) L476S/V477S, GST removed (domain or fragment, UniProt Q96N21 450-500, looked up)
chain: PGGTDSPKRGPSSCAWSRDSLFAGMESSACPRLVGAGAAAGESCPDAPRAP
Turning to B5, the “fold weaker binding than wild type” value in experiment [2] is ~15 fold.
